Test results published in the DeepSol protein solubility set.

Assay: soluble on expression in E. coli; label from the status in PepcDB or PDB records

Sequence | soluble on expression in E. coli
GAMASSVLVTQEPEIELPREPRPNEECLQILGNAEKGAKFLSDAEIIQLVNAKHIPAYKLETLIETHERGVSIRRQLLSKKLSEPSSLQYLPYRDYNYSLVMGACCENVIGYMPIPVGVAGPLCLDEKEFQVPMATTEGCLVASTNRGCRAIGLGGGASSRVLADGMTRGPVVRLPRACDSAEVKAWLETSEGFAVIKEAFDSTSRFARLQKLHTSIAGRNLYIRFQSRSGDAMGMNMISKGTEKALSKLHEYFPEMQILAVSGNYCTDKKPAAINWIEGRGKSVVCEAVIPAKVVREVLKTTTEAMIEVNINKNLVGSAMAGSIGGYNAHAANIVTAIYIACGQDAAQNVGSSNCITLMEASGPTNEDLYISCTMPSIEIGTVGGGTNLLPQQACLQMLGVQGACKDNPGENARQLARIVCGTVMAGELSLMAALAAGHLVKSHMIHNRSKINLQDLQGACTKKTA | soluble
GAMGGMHLVGVLDIAKDILKANKRLADKNRKLLNKHGVVAFDFMGAIGSGKTLLIEKLIDNLKDKYKIACIAGDVIAKFDAERMEKHGAKVVPLNTGKECHLDAHLVGHALEDLNLDEIDLLFIENVGNLICPADFDLGTHKRIVVISTTEGDDTIEKHPGIMKTADLIVINKIDLADAVGADIKKMENDAKRINPDAEVVLLSLKTMEGFDKVLEFIEKSVKEVK | soluble
GAMGNKEKADQQKAITDIVALENALDMYKLDNSVYPTTDQGLEALVTKPSSPEPRNYRNGGYIKRLPKDPWGNEYQYMSPGDKGTIDIFTLGADGQEGGEGAAADIGNWNMQDFQ | soluble
GAMGSDFLLGNPFSSPVGQRIEKATDGSLQSEDWALNMEICDIINETEEGPKDALRAVKKRIVGNKNFHEVMLALTVLETCVKNCGHRFHVLVASQDFVESVLVRTILPKNNPPTIVHDKVLNLIQSWADAFRSSPDLTGVVTIYEDLRRKGLEFPM | soluble
GAMGSGDTQLFNRAVSMVEKNKDIRSLLQCDDGITGKERLKAYGELITNDKWTRNRPIVSTKKLDKEGRTHHYMRFHVESKKKIALVHLEAKESKQNYQPDFINMYVDVPGEKRYYLIKPKLHPVSN | soluble
GAMGSKISNIFEDVEFCVMSGTDSQPKPDLENRIAEFGGYIVQNPGPDTYCVIAGSENIRVKNIILSNKHDVVKPAWLLECFKTKSFVPWQPRFMIHMCPSTKEHFAREYDCYGDSYFIDTDLNQLKEVFSGIKNSNEQTPEEMASLIADLEYRYSWDCSPLSMFRRHTVYLDSYAVINDLSTKNEGTRLAIKALELRFHGAKVVSCLAEGVSHVIIGEDHSRVADFKAFRRTFKRKFKILKESWVTDSIDKCELQEENQYLI | soluble
GAMMPVPNPTMPVKGAGTTLWVYKGSGDPYANPLSDVDWSRLAKVKDLTPGELTAESYDDSYLDDEDADWTATGQGQKSAGDTSFTLAWMPGEQGQQALLAWFNEGDTRAYKIRFPNGTVDVFRGWVSSIGKAVTAKEVITRTVKVTNVGRPSMAE | soluble
GAMRIMRPDDANVAGNVHGGTILKMIEEAGAIISTRHCNSQNGERCVAALARVERTDFLSPMCIGEVAHVSAEITYTSKHSVEVQVHVMSENILTGTKKLTNKATLWYVPLSLKNVDKVLEVPPIVYLRQEQEEEGRKRYEAQKLERMETK | soluble
GATNEVNVDAIKQLYMDCKNEADKFDVLTELYGLMTIGSSIIFVATKKTANVLYGKLKSEGHEVSILHGDLQTQERDRLIDDFREGRSKVLITTNVLARGIDIPTVSMVVNYDLPTLANGQADPATYIHRIGRTGRFGRKGVAISFVHDKNSFNILSAIQKYFGDIEMTRVPTDDWDEVEKIVKKVLKD | soluble
GCPRILIRCKQDSDCLAGCVCGPNGFCGSPA | soluble
GDSFYIRTHFEYEKESPYGLSFNKGEVFRVVDTLYNGKLGSWLAIRIGKNHKEVERGIIPNKNRAEQLASVQYVQTKFPAYERVVLREAGFLRPVTIFGPIADVAREKLAREEPDIYQIAKSEPRDAGTDQRSSGIIRLHTIKQIIDQDKHALLDVTPNAVDRLNYAQWYPIVVFLNPDSKQGVKTMRMRLCPESRKSARKLYERSHKLRKNNHHLFTTTINLNSMNDGWYGALKEAIQQQQNQLVWVSEG | soluble
GERLSMEDAVKLYESDEVEKMGAAANQIMLKWHPEPITTFVIGRNVNYTNFCDTYCRFCAFYRAPGHKEGYVLDDEVILKKIQETIDVGGTEILMQGGTNPDLTIDYYTDLLRNIKERFPNIWMHSFSPAEVWKIAEVSSMSVEEVLRELHEAGLDSMPGGGAEILTEETRLRVSRLKITWEQWINAMKATKKVGMHGTATMVIGFGESFEERALHLQRVRDAQDETECFTAFISWLFQPENTGMYKTKKLTPRDYLKNVAISRLFLDNIPNFQSSWVTMGPEVGKLSLQYGCNDFGSTMIEENVVSAAGTTHKVNTNKILQLIREAGKIPAQR | not soluble
GFIDTHLHVESSLVTPFEFDRCVTPRGITTAICDPHEIANVCGLEGIRYFLEASAHLVMDLRVQLSSCVPSTHMETAGAALEAKDLAPLMDHPRVIGLAEFMNFPGVLMKDPGCMAKLEAFRGRHIDGHAPLLRGKDLNGYIAAGIRTEHEATTAEEALEKLRKGMRVLIREGSVSKDLHALVSILTERHAPYLCLCTDDRNPLDIAEHGHIDHMIRTAIRLGAPPLAVYRAASLSAADAFGLKDRGLIAPGRRADIAVLD | not soluble
GFTPHDSAPYGALDMADFEFEQMFTDALGIDEYGG | soluble
GHGHMHGRLKVKTSEEQAEAKRLEREQKLKLYQSATQAVFQKRQAGELDESVLELTSQILGANPDFATLWNCRREVLQHLETEKSPEESAALVKAELGFLESCLRVNPKSYGTWHHRCWLLSRLPEPNWARELELCARFLEADERNFHCWDYRRFVAAQAAVAPAEELAFTDSLITRNFSNYSSWHYRSCLLPQLHPQPDSGPQGRLPENVLLKELELVQNAFFTDPNDQSAWFYHRWLLGAGSGRCELSVEKSTVLQSELESCKELQELEPENKWCLLTIILLMRALDPLLYEKETLQYFSTLKAVDPMRAAYLDDLRSKFLLENSVLKMEYA | soluble
GHHHHHHAIAENLYFQSKDVPGFLQQSQSSGPGQPAVWHRLEELYTKKLWHQLTLQVLDFVQDPCFAQGDGLIKLYENFISEFEHRVNPLSLVEIILHVVRQMTDPNVALTFLEKTREKVKSSDEAVILCKTAIGALKLNIGDLQVTKETIEDVEEMLNNLPGVTSVHSRFYDLSSKYYQTIGNHASYYKDALRFLGCVDIKDLPVSEQQERAFTLGLAGLLGEGVFNFGELLMHPVLESLRNTDRQWLIDTLYAFNSGNVERFQTLKTAWGQQPDLAANEAQLLRKIQLLCLMEMTFTRPANHRQLTFEEIAKSAKITVNEVELLVMKALSVGLVKGSIDEVDKRVHMTWVQPRVLDLQQIKGMKDRLEFWCTDVKSMEMLVEHQAHDILT | soluble
GHHHHHHAIAENLYFQSSRNPEVLWAQRSDKVYLTVALPDAKDISVKCEPQGLFSFSALGAQGERFEFSLELYGKIMTEYRKNVGLRNIIFSIQKEERSWWTRLLKSEEKPAPYIKVDWNKWCDEDEEVNSETASDDESAFVNQDSESSDDDGLLYLPDLEKARNK | soluble
GHMATIHPTAIVDEGARIGAHSRIWHWVHICGGAEIGEGCSLGQNVFVGNRVRIGNRVKIQNNVSVYDNVFLEDDVFCGPSMVFTNVYNPRAAIERKSEYRDTIVRQGATLGANCTVVCGATIGRYAFVGAGAVVNKDVPDFALVVGVPARQIGWMSRHGEQLDLPLRGNAEATCPHTGERYILTDGVCRLA | soluble
GHMENKVINFKKIIDSRGSLVAIEENKNIPFSIKRVYYIFDTKGEEPRGFHANKKLEQVLVCLNGSCRVILDDGNIIQEITLDSPAVGLYVGPAVWHEMHDFSSDCVMMVLASDYYDETDYIRQYDNFKKYIAKINLEKEG | soluble
GHMSTPLTLIATITAAPGHAEALERELRALVAPSRAEAGCLQYDLHQDRHDSHLFYMIEQWRDDAALERHQNTEHFLRFSRGNEALLQNVKIDQLYRLA | soluble
